Reference: patent publication US20100069304A1, “PROTECTIVE EFFECTS OF INHIBITING THE INTERACTION OF CALMODULIN AND MUTANT HUNTINGTIN PROTEIN” (priority 2008, published 2010)

Target: htt-N63-148Q (63 amino acid N-terminal huntingtin fragment containing 148 polyglutamine repeats) (UniProt P42858)
Test: cell-based or functional assay

Chain of htt-N63-148Q (63 amino acid N-terminal huntingtin fragment containing 148 polyglutamine repeats) (P42858 other isoform, or with tags, fused parts or gaps limits assumed): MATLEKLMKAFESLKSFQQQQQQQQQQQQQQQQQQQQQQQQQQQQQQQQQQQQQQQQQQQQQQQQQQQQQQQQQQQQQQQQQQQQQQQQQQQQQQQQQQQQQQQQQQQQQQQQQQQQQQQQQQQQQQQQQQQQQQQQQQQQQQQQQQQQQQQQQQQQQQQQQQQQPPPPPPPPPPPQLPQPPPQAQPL

TG-catalyzed modifications of huntingtin (second experiment, HEK-293T cells) (fold decrease) | TG-modified huntingtin (81D4 immunoprecipitation, immunoblot, HEK-293T cells) (fold decrease) | carbachol-stimulated intracellular Ca2+ release (Fura-2, HEK-293T cells) [% decrease] | Substance | cytotoxicity (LDH assay, HEK-293T cells) [% decrease] | cytotoxicity (LDH assay, second experiment, HEK-293T cells) [% decrease]
2 | 2 | – | CaM-C-term (C-terminal CaM construct, last 72 amino acids of calmodulin) (from UniProt P0DP23 78-149) | 40 | 40
2 | 2 | 10 | CaM-center (center region CaM construct, 77 amino acids in the center of calmodulin) (from UniProt P0DP23 37-113) | 40 | 50
